From patent US6995141B1, “Interleukin 1β protease and interleukin 1β protease inhibitors” (Vertex Pharmaceuticals Incorporated, priority 1990, dated 2006)
One block for each molecule: values may come before it. Non-standard residues stand in square brackets, D forms with d.

Tests used:
[1] = target: T1, IL-1β pro (Homo sapiens, UniProt P29466); experiment: Inhibition of IL-1β pro catalyzed degradation of preIL-1β, in vitro assay with Western blot; type: biochemical
T1 construct: beginning with amino acid 120; Based upon a molecular weight analysis, the approximate C-terminus of mature IL-1β pro is about amino acid 297
T1 sequence (P29466 120-297): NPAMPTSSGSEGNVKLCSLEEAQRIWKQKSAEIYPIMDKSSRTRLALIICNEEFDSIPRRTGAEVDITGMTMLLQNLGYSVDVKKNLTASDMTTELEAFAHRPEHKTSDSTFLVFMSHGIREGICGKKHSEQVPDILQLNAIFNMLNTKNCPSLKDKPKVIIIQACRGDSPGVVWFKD
T1 sequence (P29466 317-404): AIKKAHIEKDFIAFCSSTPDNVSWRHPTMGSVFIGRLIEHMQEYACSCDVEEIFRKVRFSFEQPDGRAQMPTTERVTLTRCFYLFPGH
Method: Products were subjected to SDS-PAGE, transferred to nitrocellulose, and probed with an antibody raised against the COOH terminus of mature IL-1β. Lane 3, preIL-1β incubated with 25 μM of inhibitor; lane 4, preIL-1β incubated with 10 μM of inhibitor; lane 5, preIL-1β incubated with 5 μM inhibitor, lane 6, preIL-1β incubated with 1 μM inhibitor.
Boc-Asp-CH2F was tested for its ability to inhibit IL-1β pro catalyzed degradation of preIL-1β using an in vitro assay method. Black, et al., J. Biol. Chem., 263(19): 9437 (1988). Boc-Asp-CH2F was prepared in accordance with the method of example of 1A.
5 μl of preIL-1β (about 50 μg/ml in PBS) was mixed with 10 μl of purified IL-1β pro (15–75 μg/ml in PBS) and incubated at 37° C. for 30 minutes. The incubation was terminated by placing the samples on Dry Ice or by the addition of SDS sample buffer. PMSF was then added to a concentration of 1 mM, and the samples were dialyzed against water. After dialysis, the samples were concentrated to dryness in a Speed-Vac concentrator and dissolved in SDS sample buffer.
SDS-PAGE was carried out with 12% polyacrylamide gels. The gels were placed in transfer buffer (0.192 M glycine. 0.025 M Tris-HCl (pH 8.3), 20% v/v methanol), and protein was then electrophoresed onto nitrocellulos (Sartorius) in a Hoeffer transfer apparatus (1 h at maximum voltage). […]

[2] = target: T2, protease that generates mature IL-1β from the precursor polypeptide (Homo sapiens, UniProt P29466); details: Black et al., FEBS Lett., 247:386–90 (1989); cited from earlier work
T2 construct: host or cells: partially purified (about 500-fold) from THP-1 cell lysates, per Black et al., FEBS Lett. 247:386-90 (1989)
T2 sequence (P29466 120-297 limits assumed): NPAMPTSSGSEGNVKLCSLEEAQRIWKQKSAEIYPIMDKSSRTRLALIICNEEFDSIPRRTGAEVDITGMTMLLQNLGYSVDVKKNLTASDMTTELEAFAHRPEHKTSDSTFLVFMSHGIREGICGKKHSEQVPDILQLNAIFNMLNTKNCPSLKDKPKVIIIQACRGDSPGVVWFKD
T2 sequence (P29466 317-404 limits assumed): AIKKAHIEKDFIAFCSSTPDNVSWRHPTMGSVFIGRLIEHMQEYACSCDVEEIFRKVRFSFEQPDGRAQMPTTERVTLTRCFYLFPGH

[3] = target: T3, purified human IL-1β pro enzyme (Homo sapiens, UniProt P29466); experiment: Cleavage of synthetic peptide substrates by purified human IL-1β pro enzyme (RP-HPLC); type: biochemical; parameters: key to Reactivity Relative To Peptide 1: reactivity relative to peptide Ala112–Ser121 of precursor IL-1β; details: for ability of IL-1β pro to cleave the substrate peptide (in words): Tables 1 and 2
T3 construct: beginning with amino acid 120; Based upon a molecular weight analysis, the approximate C-terminus of mature IL-1β pro is about amino acid 297; endogenous in cells; host or cells: THP-1 cells (ATCC), stimulated, lysed, six-step chromatography
T3 sequence (P29466 120-297): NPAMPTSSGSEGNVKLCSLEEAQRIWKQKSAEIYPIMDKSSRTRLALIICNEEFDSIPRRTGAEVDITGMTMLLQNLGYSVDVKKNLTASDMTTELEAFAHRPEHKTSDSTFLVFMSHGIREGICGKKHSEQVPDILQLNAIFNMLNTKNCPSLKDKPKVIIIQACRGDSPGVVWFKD
T3 sequence (P29466 317-404): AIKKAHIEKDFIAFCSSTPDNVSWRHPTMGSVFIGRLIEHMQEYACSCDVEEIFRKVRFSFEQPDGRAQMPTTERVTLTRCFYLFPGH
Method: This example illustrates the range of substrate specificity of purified human IL-1β pro enzyme to cleave a group of amino acid sequences. A variety of peptide substrates were prepared featuring changes in individual amino acids in the region corresponding to the cleavage site in human precursor IL-1β (His 115 to Pro 118). The reactivity of the peptide substrates was expressed relative to the peptide corresponding to Ala 112 to Ser 121 of the precursor IL-1β sequence.
Peptide solutions of standard concentration were prepared by dissolving about 2–3 mg of peptide substrate in water, loading the solution onto a Waters Sep-Pak C18 cartridge and washing three times with 5 ml of water. The peptide substrates were eluted with acetonitrile and then evaporated to dryness. Each substrate was standardized to 1 mM by amino acid analysis prior to use.
Purified human IL-1β pro enzyme (10 μl), peptide substrate in water (10 μl), and 10 mM Tris buffer, pH 8.0 containing 25% v/v glycerol (10 μl) were mixed and the mixtures were incubated at 37° C. for four hours. The reaction was quenched with by adding 1 M glycine/HCl buffer pH 2.0 (10 μl). The samples were then analyzed using RP-HPLC with a Vydac C18 column (0.46 cm×25 cm) and eluting with a linear gradient from 100% solvent A to 70% solvent A/30% solvent B over 30 minutes at a flow rate of 1 ml/min. The effluent was monitored at 280 nm absorbing product.
This example illustrates the effect of substrate peptide length on the ability of human IL-1β pro enzyme to cleave peptide substrates. […] Five substrate peptides were made that correspond to the amino acid sequence of the IL-1β pro cleavage site of human precursor IL-1.

[4] = target: Peptide 2, Ala-Tyr-Val-His-Asn-Ala-Pro-Val-Arg-Ser
[5] = target: Peptide 7, Ala-Tyr-Val-Phe-Asp-Ala-Pro-Val-Arg-Ser
[6] = target: Peptide 4, Ala-Tyr-Val-His-(D-Asp)-Ala-Pro-Val-Arg-Ser
[7] = target: Peptide 1, Ala-Tyr-Val-His-Asp-Ala-Pro-Val-Arg-Ser (human)
[8] = target: Peptide 6, Ala-Tyr-Val-His-Asp-Val-Pro-Val-Arg-Ser
[9] = target: Peptide 3, Ala-Tyr-Val-His-Glu-Ala-Pro-Val-Arg-Ser
[10] = target: Peptide 8, Ala-Tyr-Val-His-Asp-Ala-Ala-Val-Arg-Ser
[11] = target: Peptide 5, Ala-Tyr-Val-His-Asp-Gly-Pro-Val-Arg-Ser
[12] = target: T4, Peptide 10, Ac-Tyr-Val-His-Asp-Ala-Pro-Val-Arg-NH2 (human)
T4 sequence (peptide, N-terminal acetyl (Ac-); C-terminal amide (-NH2)): YVHDAPVR

[13] = target: Peptide 9, Glu-Ala-Tyr-Val-His-Asp-Ala-Pro (human)
[14] = Table 1, changes at cleavage site, 37° C., four hours, extent of peptide cleavage by RP-HPLC peak area at 280 nm
[15] = Table 2, effect of substrate peptide length, conducted as in Example 1

inhibition of generation of mature IL-1β from preIL-1β ([1]; inhibitor concentration 1 μM): partially inhibits
inhibition of generation of mature IL-1β from preIL-1β ([1]; inhibitor concentration 5 μM): completely inhibits
Molecule: CC(C)(C)OC(=O)N[C@@H](CC(=O)O)C(=O)CF [Boc-Asp-CH2F]

Reactivity Relative To Peptide 1 [3, 14]: <0.01
Molecule: Ala-Tyr-Val-His-Asn-Ala-Pro-Val-Arg-Ser (Seq. I.D. No. 14) (AYVHNAPVRS) [Peptide 2, substrate peptide, Asp changed to asparagine]
ability of IL-1β pro to cleave the substrate peptide (in words) [3]: profound effect on the ability of IL-1β pro to cleave the substrate

Reactivity Relative To Peptide 1 [3, 14]: <0.05
Molecule: Ala-Tyr-Val-His-Glu-Ala-Pro-Val-Arg-Ser (Seq. I.D. No. 15) (AYVHEAPVRS) [Peptide 3, substrate peptide, Asp changed to glutamic acid]
ability of IL-1β pro to cleave the substrate peptide (in words) [3]: profound effect on the ability of IL-1β pro to cleave the substrate

Reactivity Relative To Peptide 1 [3, 14]: 0.50
ability of IL-1β pro to cleave the substrate peptide (in words) [3]: A similar result was obtained
Molecule: Ala-Tyr-Val-Phe-Asp-Ala-Pro-Val-Arg-Ser (Seq. I.D. No. 19) (AYVFDAPVRS) [Peptide 7]

Reactivity Relative To Peptide 1 [3, 15]: 0.74
Molecule: Glu-Ala-Tyr-Val-His-Asp-Ala-Pro- (Seq. I.D. No. 21) (EAYVHDAPVRSL) [Peptide 9, substrate peptide of the precursor IL-1β cleavage site]

Further lines, the molecule ahead of its results:

Molecule: CCN1C(=O)C=CC1=O [N-ethylmaleimide]
inhibition of the protease (in words) [2]: inhibited

Molecule: O=C(O)CI [iodoacetate]
inhibition of the protease (in words) [2]: inhibited

Molecule: Ala-Tyr-Val-His-(D-Asp)-Ala-Pro-Val-Arg-Ser (Seq. I.D. No. 16) (Ac-AYVH[dD]APVRS-NH2) [Peptide 4, substrate peptide, Asp changed to D-aspartate]
Reactivity Relative To Peptide 1 [3, 14]: <0.01
ability of IL-1β pro to cleave the substrate peptide (in words) [3]: profound effect on the ability of IL-1β pro to cleave the substrate

Molecule: Ala-Tyr-Val-His-Asp-Ala-Ala-Val-Arg-Ser (Seq. I.D. No. 20) (AYVHDAAVRS) [Peptide 8, substrate peptide, P2′ proline changed to alanine]
Reactivity Relative To Peptide 1 [3, 14]: 0.47
ability of IL-1β pro to cleave the substrate peptide (in words) [3]: still cleaved by human IL-1β pro but only half as efficiently

Molecule: Ala-Tyr-Val-His-Asp-Gly-Pro-Val-Arg-Ser (Seq. I.D. No. 17) (AYVHDGPVRS) [Peptide 5, substrate peptide, P1′ alanine replaced with glycine]
times more reactive than peptide 1 [3]: 3.4 times
Reactivity Relative To Peptide 1 [3, 14]: 3.40

Molecule: Ala-Tyr-Val-His-Asp-Val-Pro-Val-Arg-Ser (Seq. I.D. No. 18) (AYVHDVPVRS) [Peptide 6, substrate peptide, P1′ alanine changed to valine]
Reactivity Relative To Peptide 1 [3, 14]: <0.05
ability of IL-1β pro to cleave the substrate peptide (in words) [3]: effectively prevents proteolytic cleavage

Molecule: His-Asp-Ala-Pro- (Seq. I.D. No. 24) (HDAP) [Peptide 12, four amino acid substrate peptide]
Reactivity Relative To Peptide 1 [3, 15]: Not cleaved

Molecule: Tyr-Val-His-Asp-Ala-Pro-Val-Arg- (Seq. I.D. No. 22) (Ac-YVHDAPVR-NH2) [Peptide 10, eight amino acid substrate peptide]
Reactivity Relative To Peptide 1 [3, 15]: 2.40
ability of IL-1β pro to cleave the substrate peptide (in words) [3]: cleaved most efficiently

Molecule: Val-His-Asp-Ala-Pro-Val- (Seq. I.D. No. 23) (VHDAPV) [Peptide 11, six amino acid substrate peptide]
Reactivity Relative To Peptide 1 [3, 15]: Not cleaved

B1: purified human IL-1β pro enzyme (interleukin 1β protease), purified from THP-1 cells (enzyme)
chain: NPAMPTSSGSEGNVKLCSLEEAQRIWKQKSAEIYPIMDKSSRTRLALIICNEEFDSIPRRTGAEVDITGMTMLLQNLGYSVDVKKNLTASDMTTELEAFAHRPEHKTSDSTFLVFMSHGIREGICGKKHSEQVPDILQLNAIFNMLNTKNCPSLKDKPKVIIIQACRGDSPGVVWFKD
Reactivity Relative To Peptide 1 (peptide cleavage, RP-HPLC) (relative to Peptide 1) [4]: < 0.01
Reactivity Relative To Peptide 1 (peptide cleavage, RP-HPLC) (relative to Peptide 1) [5]: 0.5
Reactivity Relative To Peptide 1 (peptide cleavage, RP-HPLC) (relative to Peptide 1) [6]: < 0.01
Reactivity Relative To Peptide 1 (peptide cleavage, RP-HPLC) (relative to Peptide 1) [7]: 1
Reactivity Relative To Peptide 1 (peptide cleavage, RP-HPLC) (relative to Peptide 1) [8]: < 0.05
Reactivity Relative To Peptide 1 (peptide cleavage, RP-HPLC) (relative to Peptide 1) [9]: < 0.05
Reactivity Relative To Peptide 1 (peptide cleavage, RP-HPLC) (relative to Peptide 1) [10]: 0.47
Reactivity Relative To Peptide 1 (peptide cleavage, RP-HPLC) (relative to Peptide 1) [11]: 3.4
Reactivity Relative To Peptide 1 (peptide cleavage, RP-HPLC) (relative to Peptide 1) [12]: 2.4
Reactivity Relative To Peptide 1 (peptide cleavage, RP-HPLC) (relative to Peptide 1) [13]: 0.74
